Measured values from PMC11707139.

Target: piggyBat transposase (Myotis lucifugus)
Test: AUC; sedimentation velocity, ~3.1 µM purified pBat without DNA, 500 mM NaCl, 25 mM Tris-HCl pH 7.4, 0.5 mM TCEP, 50,000 rpm, 20 °C, c(s) analysis

## piggyBat transposase (enzyme)
  stoichiometry N: 2
